This experiment has as its target CoV-2-RBD of the SARS-CoV-2 Inhibitor Screening Kit (SARS-CoV-2, UniProt P0DTC2 319-541). As to the kind of experiment: ELISA.

B1: CB79 (antibody, V domains shown)
VH: QVHLVQSGAEVKKPGASVKVSCKASGYTFTDYYMHWVRQAPGQGLEWMGRINPNSGGTNYPETLQGRVTMTTDTSTSTAYLEVRSLTPDDTAVYYCARVPYCSSTSCYSDWYFDLWGQGTLVTVSS
VL: DIVLTQSPLSLPVTPGETASISCRSSQSILDSDDGNTYLDWYLQKPGQSPQLLIYSLSYRASGVPDRFSASGSGTDFTLKISGVEAEDVGVYYCMQRIEFPLTFGGGTKLEIK
The molecule B1 came in with an IC50 of 0.14 mg/L.

The values are drawn from publication PMC9784564 (2022).
